These results are taken from PMC5542067.

In data set [1] the target is T1, CTCF ZF4-7 (human, UniProt P49711 349-465).
T1 sequence: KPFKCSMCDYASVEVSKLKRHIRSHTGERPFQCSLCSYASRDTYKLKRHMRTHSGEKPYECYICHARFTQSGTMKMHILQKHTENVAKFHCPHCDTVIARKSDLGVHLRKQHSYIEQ
Kind of data set: fluorescence polarization.

Data set [2] concerns the target T1, CTCF ZF4-7. Kind of data set: fluorescence polarization. This is another data set of the same source.
The target in data set [3] is T2, CTCF ZF3-7 (human, UniProt P49711 321-465).
T2 sequence: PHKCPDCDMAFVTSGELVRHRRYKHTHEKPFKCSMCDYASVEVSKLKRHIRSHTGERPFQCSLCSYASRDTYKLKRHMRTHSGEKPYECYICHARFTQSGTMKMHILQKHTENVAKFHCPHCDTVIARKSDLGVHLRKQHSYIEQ
Kind of data set: fluorescence polarization. For orientation: In fluorescence polarisation assays a small probe gives low polarisation when free and higher when bound to something large.

The target in data set [4] is T2, CTCF ZF3-7. Kind of data set: fluorescence polarization. The source holds these as a separate data set.
The target of data set [5] is T3, CTCF ZF4-8 (human, UniProt P49711 348-492).
T3 sequence: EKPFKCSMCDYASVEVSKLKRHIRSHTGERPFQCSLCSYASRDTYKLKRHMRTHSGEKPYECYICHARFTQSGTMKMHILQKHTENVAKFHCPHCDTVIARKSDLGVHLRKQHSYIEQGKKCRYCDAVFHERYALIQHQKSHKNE
The data set can be described thus: fluorescence polarization.

The target of data set [6] is T1, CTCF ZF4-7. Kind of data set: fluorescence polarization. The source holds these as a separate data set.
The target in data set [7] is T1, CTCF ZF4-7. The data set can be described thus: fluorescence polarization. This is another data set of the same source.
Data set [8] has as its target T1, CTCF ZF4-7. Kind of data set: fluorescence polarization. The source holds these as a separate data set.
The target in data set [9] is T3, CTCF ZF4-8. Kind of data set: fluorescence polarization. The source holds these as a separate data set.
Data set [10] concerns the target T2, CTCF ZF3-7. The data set can be described thus: crystal structure.

Where two headings read alike, the source gives them in different places.

B1: CORE 5mC12 (dsDNA)
DNA 1: AGGACCAGCAGGGGGCGCA
DNA 2: TGCGCCCCCTGCTGGTCCT
modifications: 5mC at nt 16 of top strand (motif position 12)
In the case of B1, the binding signal with CTCF ZF4-7 [1] was 1.5 fold higher affinity than CORE.

B2: CORE (dsDNA)
DNA 1: AGGACCAGCAGGGGGCGCA
DNA 2: TGCGCCCCCTGCTGGTCCT
Take B2: the binding signal in the data set with CTCF ZF4-7 [2] is 1 fold (reference); in the data set with CTCF ZF3-7 [3], ~4 fold higher affinity than without ZF3; with CTCF ZF3-7 [4], ~6 fold higher affinity than without ZF3; in the data set with CTCF ZF4-8 [5] it was ~1 fold affinity vs ZF4-7 on CORE (similar).

B3: CORE A3G (dsDNA)
DNA 1: AGGACCGGCAGGGGGCGCA
DNA 2: TGCGCCCCCTGCCGGTCCT
On to B3, for which, in the data set with CTCF ZF4-7 [6], the binding signal is ~1 fold affinity vs CORE (indistinguishable).

B4: H19 (dsDNA)
DNA 1: GTTGCCGCGTGGTGGCAG
DNA 2: CTGCCACCACGCGGCAAC
For the molecule B4, the binding signal in the data set with CTCF ZF4-7 [7] was ~6 fold lower affinity than CORE.

B5: CORE 5mC2 (dsDNA)
DNA 1: AGGACCAGCAGGGGGCGCA
DNA 2: TGCGCCCCCTGCTGGTCCT
modifications: 5mC at nt 6 of top strand (motif position 2)
Regarding B5, the binding signal with CTCF ZF4-7 [8] is ~23 fold lower affinity than CORE.

B6: control (dsDNA)
DNA 1: AATGGACGAGTCATAGGAGA
DNA 2: TTCTCCTATGACTCGTCCAT
As for B6, in the data set with CTCF ZF4-8 [9], the binding signal is ~10 fold higher affinity than without ZF8 on control.

B7: CORE crystal 17-mer (dsDNA)
DNA 1: GCCAGCAGGGGGCGCTA
DNA 2: TAGCGCCCCCTGCTGGC
B7: in the data set with CTCF ZF3-7 [10], the binding result is reported as “binds”.
